Each block holds one molecule with its values, some of them ahead of it.
How the values were obtained:
Test in all cases: single-molecule pull-down (SiMPull, TIRF microscopy); whole worm lysate of the triple-tagged strain; biotinylated antibody against the tag of one subunit (anti-OLLAS, anti-FLAG or anti-MYC) tethered to the neutravidin surface captures complexes; Cy3- and Cy5-labelled antibodies against the tags detect the subunits; track counts after wash, summed over fields of view; controls: Pre-Ab and untagged wild-type lysate
MYC::RPA-4 (C. elegans) = target: MYC::RPA-4 (C. elegans)
[1] = target: OLLAS::RPA-1 (C. elegans) (UniProt Q19537)
[2] = target: 3XFLAG::RPA-2 (C. elegans) (UniProt Q95Y97)
[3] = target: the molecule itself

pulldown counts (MYC::RPA-4 (C. elegans)): 2300 counts | pulldown counts [1]: 1810 counts | pulldown counts [2]: 206 counts
Molecule: MYC::RPA-4 (natural protein)

B1: 3XFLAG::RPA-2 (natural protein, C. elegans, UniProt Q95Y97 1-288, looked up)
chain: MWNETVEHENAGNGWAAGESSFMTDRKPDSKATTLGERLPVPVTISNLIEHFSAQDDKYVVGTFRFATVLTVGIVKDISQDGTTYTYDLCDPNNTEMEYRTLKYDNEGSTFDHSSIVEGTRVRAIGKLKGFDGNNTIMLFNITPVEDDKDFTIFELEAEAARLFFQKNVSEKLKSVDSDGFQGMLAPPKSRMSQTSHQSSQGSDTKERLYAQPQKVMTGANQGDVLRERITAVLMAVPEGSRDEGRHVSWIAEQIQETNISIVRKCVGEMVENGLVYTTVDEETVSAI
notes: also called 3XFLAG-tagged RPA-2; source: endogenous locus tagged by CRISPR/Cas9, C. elegans whole worm lysate; not shown: 3xFLAG, N-terminal, kept
pulldown counts [3]: 724 counts

pulldown counts (MYC::RPA-4 (C. elegans)): 100 counts
B2: OLLAS::RPA-1 (natural protein, C. elegans, UniProt Q19537 1-655, looked up)
chain: MAAIHINHDVFNKYHTNGKLRLTTGYVQEAIENNGYPGHDGIVQVLKGKVEQGEQLGHAFTFRIRISDGVFQYNALMSADIDDQIKREVEHLVEGTIIALTKFEIYDQGEGAKNCFLIKGYKILSRYHQVLTSPEVKPRSHSGKPDEHKGYRPNIIIEDVWPEAEGMAADYQENMANPPAAKAPKREFGEEASYNRAAAPEATRARAVPPPARRTASNTERGVMPIAMVTPYVSNFKIHGMVSRKEEIRTFPAKNTKVFNFEITDSNGDTIRCTAFNEVAESLYTTITENLSYYLSGGSVKQANKKFNNTGHDYEITLRSDSIIEAGGELLAAPKLILKRVKLGEIAGYAGQLIDVLVVVEKMDPEATEFTSKAGKSLIKREMELIDESGALVRLTLWGDEATKALVDDYVQKVIAFKGVIPREFNGGFSLGTGSATRIISVPEIAGVSELYDWYANVKPTTEVKMMSQAAGGSNEAPRTIAGLQEMQFGKDSDKGDYATVKAMITRVNPTNALYRGCASEGCQKKLVGENGDYRCEKCNKNMNKFKWLYMMQFELSDETGQVYVTAFGDSAAKIVGKSAAELGELHDESPDEYNAIFERLQFVPKMWRLRCKMDSYNEEVRQKMTVYGVDDVNQDKYIENLKQMIEQMQQMSDY
notes: also called OLLAS-tagged RPA-1; CeRPA large subunit; source: endogenous locus tagged by CRISPR/Cas9, C. elegans whole worm lysate; not shown: OLLAS, N-terminal, kept
pulldown counts [3]: 1060 counts
